This is an account of results in patent US20260176314.

To fix the notation:
T1: FLAG_SERPINB14_HiBiT
T1 chain: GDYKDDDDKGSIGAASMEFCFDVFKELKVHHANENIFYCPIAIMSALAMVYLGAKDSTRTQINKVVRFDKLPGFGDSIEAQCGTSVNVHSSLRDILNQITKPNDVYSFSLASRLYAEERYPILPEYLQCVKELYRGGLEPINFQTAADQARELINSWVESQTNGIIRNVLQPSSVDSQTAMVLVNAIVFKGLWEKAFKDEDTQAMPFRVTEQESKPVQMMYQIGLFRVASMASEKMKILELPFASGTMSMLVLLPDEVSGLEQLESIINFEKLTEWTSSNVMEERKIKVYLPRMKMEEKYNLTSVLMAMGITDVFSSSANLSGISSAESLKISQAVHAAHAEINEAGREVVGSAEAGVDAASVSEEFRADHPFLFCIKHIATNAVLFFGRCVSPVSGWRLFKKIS

B1: Fam20c(M1-R584)_MYC (protein)
chain: MKMMLVRRFRVLILMVFLVACALHIALDLLPRLERRGARPSGEPGCSCAQPAAEVAAPGWAQVRGRPGEPPAASSAAGDAGWPNKHTLRILQDFSSDPSSNLSSHSLEKLPPAAEPAERALRGRDPGALRPHDPAHRPLLRDPGPRRSESPPGPGGDASLLARLFEHPLYRVAVPPLTEEDVLFNVNSDTRLSPKAAENPDWPHAGAEGAEFLSPGEAAVDSYPNWLKFHIGINRYELYSRHNPAIEALLHDLSSQRITSVAMKSGGTQLKLIMTFQNYGQALFKPMKQTREQETPPDFFYFSDYERHNAEIAAFHLDRILDFRRVPPVAGRMVNMTKEIRDVTRDKKLWRTFFISPANNICFYGECSYYCSTEHALCGKPDQIEGSLAAFLPDLSLAKRKTWRNPWRRSYHKRKKAEWEVDPDYCEEVKQTPPYDSSHRILDVMDMTIFDFLMGNMDRHHYETFEKFGNETFIIHLDNGRGFGKYSHDELSILVPLQQCCRIRKSTYLRLQLLAKEEYKLSLLMAESLRGDQVAPVLYQPHLEALDRRLRVVLKAVRDCVERNGLHSVVDDDLDTEHRAASAREQKLISEEDL
B2: ScMNN2(M1-S36)_Fam20c(R32-R584)_FLAG (protein)
chain: MLLTKRFSKLFKLTFIVLILCGLFVITNKYMDENTSRLERRGARPSGEPGCSCAQPAAEVAAPGWAQVRGRPGEPPAASSAAGDAGWPNKHTLRILQDFSSDPSSNLSSHSLEKLPPAAEPAERALRGRDPGALRPHDPAHRPLLRDPGPRRSESPPGPGGDASLLARLFEHPLYRVAVPPLTEEDVLFNVNSDTRLSPKAAENPDWPHAGAEGAEFLSPGEAAVDSYPNWLKFHIGINRYELYSRHNPAIEALLHDLSSQRITSVAMKSGGTQLKLIMTFQNYGQALFKPMKQTREQETPPDFFYFSDYERHNAEIAAFHLDRILDFRRVPPVAGRMVNMTKEIRDVTRDKKLWRTFFISPANNICFYGECSYYCSTEHALCGKPDQIEGSLAAFLPDLSLAKRKTWRNPWRRSYHKRKKAEWEVDPDYCEEVKQTPPYDSSHRILDVMDMTIFDFLMGNMDRHHYETFEKFGNETFIIHLDNGRGFGKYSHDELSILVPLQQCCRIRKSTYLRLQLLAKEEYKLSLLMAESLRGDQVAPVLYQPHLEALDRRLRVVLKAVRDCVERNGLHSVVDDDLDTEHRAASARDYKDDDDK
B3: ScMNN1(M1-A42)_Fam20c(D93-R584)_FLAG (protein)
chain: MLALRRFILNQRSLRSCTIPILVGALIIILVLFQLVTHRNDADFSSDPSSNLSSHSLEKLPPAAEPAERALRGRDPGALRPHDPAHRPLLRDPGPRRSESPPGPGGDASLLARLFEHPLYRVAVPPLTEEDVLFNVNSDTRLSPKAAENPDWPHAGAEGAEFLSPGEAAVDSYPNWLKFHIGINRYELYSRHNPAIEALLHDLSSQRITSVAMKSGGTQLKLIMTFQNYGQALFKPMKQTREQETPPDFFYFSDYERHNAEIAAFHLDRILDFRRVPPVAGRMVNMTKEIRDVTRDKKLWRTFFISPANNICFYGECSYYCSTEHALCGKPDQIEGSLAAFLPDLSLAKRKTWRNPWRRSYHKRKKAEWEVDPDYCEEVKQTPPYDSSHRILDVMDMTIFDFLMGNMDRHHYETFEKFGNETFIIHLDNGRGFGKYSHDELSILVPLQQCCRIRKSTYLRLQLLAKEEYKLSLLMAESLRGDQVAPVLYQPHLEALDRRLRVVLKAVRDCVERNGLHSVVDDDLDTEHRAASARDYKDDDDK
B4: ScMNN2(M1-P97)_Fam20c(R32-R584)_FLAG (protein)
chain: MLLTKRFSKLFKLTFIVLILCGLFVITNKYMDENTSVKEYKEYLDRYVQSYSNKYSSSSDAASADDSTPLRDNDEAGNEKLKSFYNNVFNFLMVDSPRLERRGARPSGEPGCSCAQPAAEVAAPGWAQVRGRPGEPPAASSAAGDAGWPNKHTLRILQDFSSDPSSNLSSHSLEKLPPAAEPAERALRGRDPGALRPHDPAHRPLLRDPGPRRSESPPGPGGDASLLARLFEHPLYRVAVPPLTEEDVLFNVNSDTRLSPKAAENPDWPHAGAEGAEFLSPGEAAVDSYPNWLKFHIGINRYELYSRHNPAIEALLHDLSSQRITSVAMKSGGTQLKLIMTFQNYGQALFKPMKQTREQETPPDFFYFSDYERHNAEIAAFHLDRILDFRRVPPVAGRMVNMTKEIRDVTRDKKLWRTFFISPANNICFYGECSYYCSTEHALCGKPDQIEGSLAAFLPDLSLAKRKTWRNPWRRSYHKRKKAEWEVDPDYCEEVKQTPPYDSSHRILDVMDMTIFDFLMGNMDRHHYETFEKFGNETFIIHLDNGRGFGKYSHDELSILVPLQQCCRIRKSTYLRLQLLAKEEYKLSLLMAESLRGDQVAPVLYQPHLEALDRRLRVVLKAVRDCVERNGLHSVVDDDLDTEHRAASARDYKDDDDK
B5: ScMNN2(M1-S150)_Fam20c(R32-R584)_FLAG (protein)
chain: MLLTKRFSKLFKLTFIVLILCGLFVITNKYMDENTSVKEYKEYLDRYVQSYSNKYSSSSDAASADDSTPLRDNDEAGNEKLKSFYNNVFNFLMVDSPKGSTAKQYNEACLLKGDIGDRPDHYKDLYKLSAKELSKCLELSPDEVASLTKSRLERRGARPSGEPGCSCAQPAAEVAAPGWAQVRGRPGEPPAASSAAGDAGWPNKHTLRILQDFSSDPSSNLSSHSLEKLPPAAEPAERALRGRDPGALRPHDPAHRPLLRDPGPRRSESPPGPGGDASLLARLFEHPLYRVAVPPLTEEDVLFNVNSDTRLSPKAAENPDWPHAGAEGAEFLSPGEAAVDSYPNWLKFHIGINRYELYSRHNPAIEALLHDLSSQRITSVAMKSGGTQLKLIMTFQNYGQALFKPMKQTREQETPPDFFYFSDYERHNAEIAAFHLDRILDFRRVPPVAGRMVNMTKEIRDVTRDKKLWRTFFISPANNICFYGECSYYCSTEHALCGKPDQIEGSLAAFLPDLSLAKRKTWRNPWRRSYHKRKKAEWEVDPDYCEEVKQTPPYDSSHRILDVMDMTIFDFLMGNMDRHHYETFEKFGNETFIIHLDNGRGFGKYSHDELSILVPLQQCCRIRKSTYLRLQLLAKEEYKLSLLMAESLRGDQVAPVLYQPHLEALDRRLRVVLKAVRDCVERNGLHSVVDDDLDTEHRAASARDYKDDDDK
B6: ScKRE2(M1-S80)_Fam20c(D93-R584)_FLAG (protein)
chain: MALFLSKRLLRFTVIAGAVIVLLLTLNSNSRTQQYIPSSISAAFDFTSGSISPEQQVISEENDAKKLEQSALNSEASEDSDFSSDPSSNLSSHSLEKLPPAAEPAERALRGRDPGALRPHDPAHRPLLRDPGPRRSESPPGPGGDASLLARLFEHPLYRVAVPPLTEEDVLFNVNSDTRLSPKAAENPDWPHAGAEGAEFLSPGEAAVDSYPNWLKFHIGINRYELYSRHNPAIEALLHDLSSQRITSVAMKSGGTQLKLIMTFQNYGQALFKPMKQTREQETPPDFFYFSDYERHNAEIAAFHLDRILDFRRVPPVAGRMVNMTKEIRDVTRDKKLWRTFFISPANNICFYGECSYYCSTEHALCGKPDQIEGSLAAFLPDLSLAKRKTWRNPWRRSYHKRKKAEWEVDPDYCEEVKQTPPYDSSHRILDVMDMTIFDFLMGNMDRHHYETFEKFGNETFIIHLDNGRGFGKYSHDELSILVPLQQCCRIRKSTYLRLQLLAKEEYKLSLLMAESLRGDQVAPVLYQPHLEALDRRLRVVLKAVRDCVERNGLHSVVDDDLDTEHRAASARDYKDDDDK
B7: ScMNN6(M1-P30)_Fam20c(R32-R584)_FLAG (protein)
chain: RLERRGARPSGEPGCSCAQPAAEVAAPGWAQVRGRPGEPPAASSAAGDAGWPNKHTLRILQDFSSDPSSNLSSHSLEKLPPAAEPAERALRGRDPGALRPHDPAHRPLLRDPGPRRSESPPGPGGDASLLARLFEHPLYRVAVPPLTEEDVLFNVNSDTRLSPKAAENPDWPHAGAEGAEFLSPGEAAVDSYPNWLKFHIGINRYELYSRHNPAIEALLHDLSSQRITSVAMKSGGTQLKLIMTFQNYGQALFKPMKQTREQETPPDFFYFSDYERHNAEIAAFHLDRILDFRRVPPVAGRMVNMTKEIRDVTRDKKLWRTFFISPANNICFYGECSYYCSTEHALCGKPDQIEGSLAAFLPDLSLAKRKTWRNPWRRSYHKRKKAEWEVDPDYCEEVKQTPPYDSSHRILDVMDMTIFDFLMGNMDRHHYETFEKFGNETFIIHLDNGRGFGKYSHDELSILVPLQQCCRIRKSTYLRLQLLAKEEYKLSLLMAESLRGDQVAPVLYQPHLEALDRRLRVVLKAVRDCVERNGLHSVVDDDLDTEHRAASARDYKDDDDK
B8: ScKRE(M1-I58)_Fam20c(R32-R584)_FLAG (protein)
chain: MALFLSKRLLRFTVIAGAVIVLLLTLNSNSRTQQYIPSSISAAFDFTSGSISPEQQVIRLERRGARPSGEPGCSCAQPAAEVAAPGWAQVRGRPGEPPAASSAAGDAGWPNKHTLRILQDFSSDPSSNLSSHSLEKLPPAAEPAERALRGRDPGALRPHDPAHRPLLRDPGPRRSESPPGPGGDASLLARLFEHPLYRVAVPPLTEEDVLFNVNSDTRLSPKAAENPDWPHAGAEGAEFLSPGEAAVDSYPNWLKFHIGINRYELYSRHNPAIEALLHDLSSQRITSVAMKSGGTQLKLIMTFQNYGQALFKPMKQTREQETPPDFFYFSDYERHNAEIAAFHLDRILDFRRVPPVAGRMVNMTKEIRDVTRDKKLWRTFFISPANNICFYGECSYYCSTEHALCGKPDQIEGSLAAFLPDLSLAKRKTWRNPWRRSYHKRKKAEWEVDPDYCEEVKQTPPYDSSHRILDVMDMTIFDFLMGNMDRHHYETFEKFGNETFIIHLDNGRGFGKYSHDELSILVPLQQCCRIRKSTYLRLQLLAKEEYKLSLLMAESLRGDQVAPVLYQPHLEALDRRLRVVLKAVRDCVERNGLHSVVDDDLDTEHRAASARDYKDDDDK

Sequence of FLAG_TRX_SPP1 (G158-N314)_HiBiT (chain, as listed by the source): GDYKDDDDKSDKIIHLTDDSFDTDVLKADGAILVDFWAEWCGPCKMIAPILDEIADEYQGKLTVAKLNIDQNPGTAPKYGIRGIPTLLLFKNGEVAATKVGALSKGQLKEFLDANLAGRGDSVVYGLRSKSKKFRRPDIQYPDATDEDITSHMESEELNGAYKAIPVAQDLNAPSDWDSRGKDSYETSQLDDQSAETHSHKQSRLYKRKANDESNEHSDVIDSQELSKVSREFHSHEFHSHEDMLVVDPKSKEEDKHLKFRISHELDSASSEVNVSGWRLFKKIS

The target of one series is T1, FLAG_SERPINB14_HiBiT.
Consider B1, for which the “phosphorylation sites detected by LC-MS/MS after co-expression in Pichia pastoris” value was “S69, T76, T92, S99, S165, T202, S206, and S345”.

The next series has as its target FLAG_TRX_SPP1 (G158-N314)_HiBiT.
On to B2, for which the “Phosphorylation” value is given as “Yes”.
The same measure, in the same setting: to B3 belongs “Yes”; to B4, “Yes”.
Same read-out and setting: to B5 belongs “Yes”; to B6, “Yes”.
Take B7: the “Phosphorylation” value is listed as “Yes”.
As to B1, the “Phosphorylation” value is “Yes”.
Same read-out and setting: to B8 belongs “Yes”.
